Test [1] concerns the target Aedes aegypti membrane-bound alkaline phosphatase (Aa-mALP) (Aedes aegypti). The test is described as follows: ELISA.
The target is the same in test [2]. The test is described as follows: ELISA. This is another data set of the same source. A general note: In an ELISA, binding on a coated surface is turned into a signal by an enzyme label.

In general, Kd refers to the constant that tells how readily two partners part at equilibrium. High values mean lower affinity, low ones higher affinity.

Read-outs that look alike come from different tables or passages of the source.

Turning to “65 kDa trypsin-activated Cry4Ba-R203Q toxin (natural protein)”, the Kd in test [1] worked out at 76.2 nM; in test [2], 76.5 nM.

(Values after PMC10558600.)
